Data: publication PMC5470873

Molecular target: T1, mouse TMEM16A(ac) isoform (mouse), Q8BHY3
T1 chain: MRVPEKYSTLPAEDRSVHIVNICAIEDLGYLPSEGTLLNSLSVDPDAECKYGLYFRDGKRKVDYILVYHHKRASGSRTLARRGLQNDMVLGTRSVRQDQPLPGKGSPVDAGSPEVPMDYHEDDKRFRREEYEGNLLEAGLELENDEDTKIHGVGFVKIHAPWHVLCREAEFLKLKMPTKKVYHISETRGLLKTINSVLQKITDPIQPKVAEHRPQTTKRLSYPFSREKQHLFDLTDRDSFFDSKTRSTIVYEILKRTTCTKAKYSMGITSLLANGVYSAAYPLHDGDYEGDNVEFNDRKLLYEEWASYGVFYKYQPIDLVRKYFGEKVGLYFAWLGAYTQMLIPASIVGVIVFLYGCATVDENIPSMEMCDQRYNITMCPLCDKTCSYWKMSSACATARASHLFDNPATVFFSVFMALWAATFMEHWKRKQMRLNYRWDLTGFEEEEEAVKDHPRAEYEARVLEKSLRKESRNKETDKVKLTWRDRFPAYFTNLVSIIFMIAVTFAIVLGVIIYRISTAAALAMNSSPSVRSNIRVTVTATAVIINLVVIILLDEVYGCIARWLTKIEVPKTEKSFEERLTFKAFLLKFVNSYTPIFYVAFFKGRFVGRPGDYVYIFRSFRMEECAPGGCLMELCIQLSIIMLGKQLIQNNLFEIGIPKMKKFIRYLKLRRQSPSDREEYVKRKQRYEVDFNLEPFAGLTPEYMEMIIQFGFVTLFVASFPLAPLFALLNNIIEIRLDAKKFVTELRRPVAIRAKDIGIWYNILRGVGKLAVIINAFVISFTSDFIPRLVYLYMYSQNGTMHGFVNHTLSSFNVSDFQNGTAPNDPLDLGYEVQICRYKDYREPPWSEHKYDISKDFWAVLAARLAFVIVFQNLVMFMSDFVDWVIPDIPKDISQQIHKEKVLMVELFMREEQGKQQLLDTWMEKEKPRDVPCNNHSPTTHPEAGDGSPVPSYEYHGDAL
Experiment: cryo-EM structure; purified mTMEM16A at 3 mg/ml in 0.12% digitonin, 20 mM HEPES pH 7.5, 150 mM NaCl, 0.5 mM CaCl2; single particle reconstruction with C2 symmetry imposed, 6.6 Å; poly-alanine model
Details: remark: other sources report otherwise

stoichiometry N: 2
B1: mouse TMEM16A(ac) isoform, Q8BHY3 1-960 (natural protein)
chain: MRVPEKYSTLPAEDRSVHIVNICAIEDLGYLPSEGTLLNSLSVDPDAECKYGLYFRDGKRKVDYILVYHHKRASGSRTLARRGLQNDMVLGTRSVRQDQPLPGKGSPVDAGSPEVPMDYHEDDKRFRREEYEGNLLEAGLELENDEDTKIHGVGFVKIHAPWHVLCREAEFLKLKMPTKKVYHISETRGLLKTINSVLQKITDPIQPKVAEHRPQTTKRLSYPFSREKQHLFDLTDRDSFFDSKTRSTIVYEILKRTTCTKAKYSMGITSLLANGVYSAAYPLHDGDYEGDNVEFNDRKLLYEEWASYGVFYKYQPIDLVRKYFGEKVGLYFAWLGAYTQMLIPASIVGVIVFLYGCATVDENIPSMEMCDQRYNITMCPLCDKTCSYWKMSSACATARASHLFDNPATVFFSVFMALWAATFMEHWKRKQMRLNYRWDLTGFEEEEEAVKDHPRAEYEARVLEKSLRKESRNKETDKVKLTWRDRFPAYFTNLVSIIFMIAVTFAIVLGVIIYRISTAAALAMNSSPSVRSNIRVTVTATAVIINLVVIILLDEVYGCIARWLTKIEVPKTEKSFEERLTFKAFLLKFVNSYTPIFYVAFFKGRFVGRPGDYVYIFRSFRMEECAPGGCLMELCIQLSIIMLGKQLIQNNLFEIGIPKMKKFIRYLKLRRQSPSDREEYVKRKQRYEVDFNLEPFAGLTPEYMEMIIQFGFVTLFVASFPLAPLFALLNNIIEIRLDAKKFVTELRRPVAIRAKDIGIWYNILRGVGKLAVIINAFVISFTSDFIPRLVYLYMYSQNGTMHGFVNHTLSSFNVSDFQNGTAPNDPLDLGYEVQICRYKDYREPPWSEHKYDISKDFWAVLAARLAFVIVFQNLVMFMSDFVDWVIPDIPKDISQQIHKEKVLMVELFMREEQGKQQLLDTWMEKEKPRDVPCNNHSPTTHPEAGDGSPVPSYEYHGDAL
